From patent US20240076386A1 (Pfizer, published 2024)

T1: cynomolgus monkey E-selectin extracellular domain with 10 His purification tail (cynomolgus monkey, UniProt P16581 22-554 (human entry))
T1 construct: also called cynomolgus E-selectin; truncated cynomolgus monkey E-selectin
T1 chain: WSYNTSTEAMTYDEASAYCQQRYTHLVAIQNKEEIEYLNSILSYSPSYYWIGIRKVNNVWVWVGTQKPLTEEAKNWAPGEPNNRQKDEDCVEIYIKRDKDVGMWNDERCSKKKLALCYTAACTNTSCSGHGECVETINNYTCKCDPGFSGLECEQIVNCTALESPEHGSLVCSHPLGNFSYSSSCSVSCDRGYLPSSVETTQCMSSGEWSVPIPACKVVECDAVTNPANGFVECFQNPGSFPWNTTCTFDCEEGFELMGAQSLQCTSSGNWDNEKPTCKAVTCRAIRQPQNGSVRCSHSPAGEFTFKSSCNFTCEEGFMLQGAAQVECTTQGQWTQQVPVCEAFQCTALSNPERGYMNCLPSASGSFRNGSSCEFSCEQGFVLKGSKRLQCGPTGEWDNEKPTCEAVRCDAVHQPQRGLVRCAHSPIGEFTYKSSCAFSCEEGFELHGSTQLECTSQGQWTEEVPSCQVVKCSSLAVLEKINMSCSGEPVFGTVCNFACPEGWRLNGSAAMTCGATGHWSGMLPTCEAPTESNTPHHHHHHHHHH

T2: human E-selectin extracellular domain with 10 His purification tail (human, UniProt P16581 22-556)
T2 construct: also called soluable human E-selectin extracellular domain; rhE-Selectin
T2 sequence: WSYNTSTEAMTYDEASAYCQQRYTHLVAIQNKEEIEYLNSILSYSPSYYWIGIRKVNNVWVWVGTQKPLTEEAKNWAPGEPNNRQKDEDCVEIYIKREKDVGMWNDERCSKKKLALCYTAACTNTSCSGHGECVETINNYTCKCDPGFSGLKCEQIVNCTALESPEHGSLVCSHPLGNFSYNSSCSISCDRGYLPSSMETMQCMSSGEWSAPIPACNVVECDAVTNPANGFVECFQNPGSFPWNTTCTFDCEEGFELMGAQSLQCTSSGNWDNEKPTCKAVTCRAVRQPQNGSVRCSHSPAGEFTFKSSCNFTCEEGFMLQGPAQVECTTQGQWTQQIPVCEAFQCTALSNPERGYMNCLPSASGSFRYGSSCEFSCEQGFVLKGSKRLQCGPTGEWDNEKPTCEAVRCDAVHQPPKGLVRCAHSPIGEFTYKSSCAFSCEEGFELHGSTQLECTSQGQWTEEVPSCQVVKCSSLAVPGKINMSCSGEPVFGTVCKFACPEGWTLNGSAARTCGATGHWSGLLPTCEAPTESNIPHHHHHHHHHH


How the values were obtained:
[1] = target: T1, cynomolgus monkey E-selectin …; test: SPR, antibody captured, E-selectin analyte
Method: (§1) All flow cells were blocked with 1M Ethanolamine-HCl (ETH) for 7 minutes at 10 μL/minute. Final immobilization level of the capture antibody was approximately 10,000 resonance units (RU). The running buffer for immobilization and kinetics was HBS-EP+(10 mM 4-(2-hydroxyethyl)-1-piperazineethanesulfonic acid (HEPES) pH 7.4, 150 mM sodium chloride, 3 mM ethylenediaminetetraacetic acid (EDTA), 0.05% (v/v) Tween-20).
(§2) To characterize binding of antibodies to human, cynomolgus monkey, and mouse E-selectin, an antibody was diluted to 0.5 μg/mL in HBS-EP+ and captured by the anti-human IgG immobilized on flow cells 2, 3 and 4 for 30 seconds to 1 minute at a flow rate of 10 μL/minute to achieve a capture level of 70 to 300 RU. Flow cell 1 was used as a reference surface. […] HBS-EP+ buffer cycles collected for each captured antibody were used for double-referencing (Myszka D G. J. Mol. Recognition 1999; 12(5):279-84). At the end of each cycle, the entire anti-IgG surface was regenerated by a 30 second pulse of 3 M MgCl₂ and a 30 second pulse of ionic buffer (1.83 M MgCl₂, 0.92 M Urea, 1.83 M Guanidine HCl, pH 7.4) (Andersson K. Analy. Chem. 1999; 71(13): 2475-81). Kinetic assays were conducted at 25° C. at a collection rate of 10 Hertz (Hz) on a BIAcore™ T200 instrument (GE Healthcare). Rate constants and affinities were determined by fitting the data to a 1:1 binding model in BIAcore™ T200 Evaluation software version 3.0 (GE Healthcare).
(§3) This was done by first binding the antibody to immobilized anti-human IgG. After antibody capture, dilutions of the E-selectin proteins were flowed over and the association rate constant (ka), disassociation rate constant (kd), t½, and KD values were determined for binding to human and cynomolgus (Table 26).

[2] = target: T2, human E-selectin extracellular domain …; test: SPR, antibody captured, E-selectin analyte
Method: as §1, §2, §3

Kd [1] [nM] | koff [1] [s⁻¹] | kon [1] [M⁻¹ s⁻¹] | t½ [1] [s] | Kd [2] [nM] | koff [2] [s⁻¹] | kon [2] [M⁻¹ s⁻¹] | t½ [2] [s] | Binder
78.3 | 0.0176 | 227000 | 39.4 | 70.3 | 0.0141 | 201000 | 49.3 | optimized anti-E-selectin antibody 1282 (antibody, human IgG1, kappa, V domains shown, effector-null human IgG1, kappa) VH: EVQLVESGGGLVQPGGSLRLSCAASGYAIRSAYMHWVRQAPGKGLEWVARIDPANGNTIYVDSVEGRFTISADNAKNSAYLQMNSLRAEDTAVYYCAMDLYSTSEYWGQGTLVTVSS VL: DIQMTQSPSSLSASVGDRVTITCKTSQNIERYLNWYQQKPGKAPKLLIYAASSLQSGVPSRFSGSGSGTDFTLTISSLQPEDFATYFCLQDNAWPLTFGQGTKVEIKR
67.8 | 0.015 | 222000 | 46.2 | 60.5 | 0.0126 | 210000 | 55 | optimized anti-E-selectin antibody 1448 (antibody, human IgG1, kappa, V domains shown, effector-null human IgG1, kappa) VH: EVQLVESGGGLVQPGGSLRLSCAASGYAIRSAYMHWVRQAPGKGLEWVARIDPANGNTIYVDSVKERFTISADNAKNSAYLQMNSLRAEDTAVYYCAMDLYSTSEYWGQGTLVTVSS VL: DIQMTQSPSSLSASVGDRVTITCKTSQNIERYLNWYQQKPGKAPKLLIYAASSLQSGVPSRFSGSGSGTDFTLTISSLQPEDFATYFCLQDNAWPLTFGQGTKVEIKR
81.5 | 0.0171 | 211000 | 40.5 | 61.8 | 0.0163 | 264000 | 42.7 | optimized anti-E-selectin antibody 1444 (antibody, human IgG1, kappa, V domains shown, effector-null human IgG1, kappa) VH: EVQLVESGGGLVQPGGSLRLSCAASGYAIRSAYMHWVRQAPGKGLEWVARIDPANGNTIYVDSVTGRFTISADNAKNSAYLQMNSLRAEDTAVYYCAMDLYSTSEYWGQGTLVTVSS VL: DIQMTQSPSSLSASVGDRVTITCKTSQNIERYLNWYQQKPGKAPKLLIYAASSLQSGVPSRFSGSGSGTDFTLTISSLQPEDFATYFCLQDNAWPLTFGQGTKVEIKR
76.5 | 0.018 | 236000 | 38.5 | 65.2 | 0.0145 | 222000 | 48 | optimized anti-E-selectin antibody 1284 (antibody, human IgG1, kappa, V domains shown, effector-null human IgG1, kappa) VH: EVQLVESGGGLVQPGGSLRLSCAASGYAIRSAYMHWVRQAPGKGLEWVARIDPANGNTIYVESVEGRFTISADNAKNSAYLQMNSLRAEDTAVYYCAMDLYSTSEYWGQGTLVTVSS VL: DIQMTQSPSSLSASVGDRVTITCKTSQNIERYLNWYQQKPGKAPKLLIYAASSLQSGVPSRFSGSGSGTDFTLTISSLQPEDFATYFCLQDNAWPLTFGQGTKVEIKR
